Measured values as given in article PMC9073860.

Target: T1, C-reactive protein (CRP) (human, UniProt P02741 19-224)
T1 sequence: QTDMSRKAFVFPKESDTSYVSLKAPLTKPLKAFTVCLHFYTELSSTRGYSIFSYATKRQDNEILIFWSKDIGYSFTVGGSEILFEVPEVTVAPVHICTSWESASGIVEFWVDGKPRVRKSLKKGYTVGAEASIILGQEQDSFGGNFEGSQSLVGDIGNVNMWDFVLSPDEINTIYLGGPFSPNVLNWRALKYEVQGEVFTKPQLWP
Assay: competition

Binder: CGAAGGGGATTCGAGGGGTGATTGCGTGCTCCATTTGGTG (ssDNA, 5'-biotin-(CH2)6) [CRP-aptamer (40-mer)]
- binding result: binds
